The text below walks through data of paper doi:10.1101/2020.09.18.291195 (bioRxiv, 2020).

Data set [1] concerns the target human LI-cadherin EC1-5 (human). The experiment in a line: AUC.
The data set “AUC” concerns the molecule itself. Nature of the data set: AUC.

On to “human LI-cadherin EC1-5 (domain or fragment)”, for which, in data set [1], the Kd (as a rule, the concentration at which binding is half-saturated) stood at 22.8 µM and the stoichiometry N (usually the number of molecules, sites or subunits per partner or assembly) worked out at 2.

B1: human LI-cadherin EC1-4 (domain or fragment)
chain: QEGKFSGPLKPMTFSIYEGQEPSQIIFQFKANPPAVTFELTGETDNIFVIEREGLLYYNRALDRETRSTHNLQVAALDANGIIVEGPVPITIKVKDINDNRPTFLQSKYEGSVRQNSRPGKPFLYVNATDLDDPATPNGQLYYQIVIQLPMINNVMYFQINNKTGAISLTREGSQELNPAKNPSYNLVISVKDMGGQSENSFSDTTSVDIIVTENIWKAPKPVEMVENSTDPHPIKITQVRWNDPGAQYSLVDKEKLPRFPFSIDQEGDIYVTQPLDREEKDAYVFYAVAKDEYGKPLSYPLEIHVKVKDINDNPPTCPSPVTVFEVQENERLGNSIGTLTAHDRDEENTANSFLNYRIVEQTPKLPMDGLFLIQTYAGMLQLAKQSLKKQDTPQYNLTIEVSDKDFKTLCFVQINVID
modifications: N-glycans (four partial N-glycans modelled in chain A and two in chain B of the crystal structure)
On to B1, for which, in “AUC”, the Kd amounted to 39.8 µM and the “stoichiometry N” value worked out at 2.

B2: human LI-cadherin EC1-2 (domain or fragment)
chain: GPLKPMTFSIYEGQEPSQIIFQFKANPPAVTFELTGETDNIFVIEREGLLYYNRALDRETRSTHNLQVAALDANGIIVEGPVPITIKVKDINDNRPTFLQSKYEGSVRQNSRPGKPFLYVNATDLDDPATPNGQLYYQIVIQLPMINNVMYFQINNKTGAISLTREGSQELNPAKNPSYNLVISVKDMGGQSENSFSDTTSVDIIVTE
On to B2, for which, in the data set “AUC”, binding was put at a Kd of 75 µM and the “stoichiometry N” value was 2.
